# From patent US6589738B1, “Genes essential for microbial proliferation and antisense thereto” (priority 1999, dated 2003)
# B1: EcXA082: antisense clone insert, E. coli genes hybC; hybB (nucleic acid, listed as Escherichia coli)
# DNA: TGCTTTGCTCGCCTCATGACGATTATGATCGTTTTGTTTTAAAGGAGGAAGTATCGGCAGTAGACGAATGAGTACGATGTAAGCGCAAATCTCAATAGCCACAAAACCAATAGAAATCAACAGTTCTTCCCAGGTCGGGAAGTA
# B2: EcXA104: antisense clone insert, E. coli gene hsdS (nucleic acid, listed as Escherichia coli)
# DNA: GACGCGGCGAACGATTTCGGCTTGTTCTTTTACTGGAGGTAATAAAACAACTTGGGATTTGATATCTTTTCCTGAAATACCTTTTTGACCAGAAGTTGTTTTCACGCAGTTCATCATTGCATTTCGTGCTGAGGGGGATGAAAAAAATATTTCGATATATTCTGGTAAAGCATCTTT
# B3: EcXA083: antisense clone insert, E. coli gene hrpB (nucleic acid, listed as Escherichia coli)
# DNA: CGGCTTAGCGCGTCGTTGGCATCGAGCATCGCTCCCATGCCGTTTGCCAGTTGATAGCGTCCATCTTGCC
# B4: EcXA062: antisense clone insert, E. coli gene rep (nucleic acid, listed as Escherichia coli)
# DNA: CGCGTGGAGAGTCATCAGTTGCACCTGATCCAGCTCTTCTTCACTCTCACCACGCTCNATCATGTCGCGCAAAGTAAAGCGCGTCACCACCTGGGTGAGCGTCATCGGCTCATCCAGTTCACTGCCTTCCAGCATCTCCGTCATCCAGCTAAACAGTTGGTTGACGTTCTTCATGCGCATTTCGGCGGCTTTCGGGCTGGGCGATGTTTCGTACAGCCAGGATTCATAATCCATGCCATGGATCAGATCACGCACCGCGGCAATCGGCTCCCGCTCCGCCAGACGCTGGATTTCTGCCAACCAGTGAGTGAAGCGGGTCAATGCTTCA
# modifications: misc_feature (1)...(328): n = A,T,C or G
# notes: antisense clone insert, E. coli gene rep
# B5: EcXA072: antisense clone insert, E. coli gene recJ (nucleic acid, listed as Escherichia coli)
# DNA: GATTTTTACCGGATTAATTTTAAACATGGTCTGATTTCTTTTATTGAGCTAGTCAAAATGCGGTGATAAGAGCGGGATTGTCCCAATCCACGCTCTTTTTTATAGAGAAGATGACGCTAAATTGGCCAGATATTGTCGATGATAATTTG
# B6: EcXA059: antisense clone insert encoding a portion of the ypjA gene of Escherichia coli (nucleic acid, listed as Escherichia coli)
# DNA: NACCANGANTGGGACCCAAATGAAAATTGAACTGAAGATTACAATCAATTTAACANCAAGTTACACAACCAATTCAGACTCCGCCAGCCCACCAATCATGATTGGACGGTGTAAGGACAACACCAACAAAAACAGGAAGTTAGAAGTCTNAGCAAAACACCGACCAGACGGTGAGGAGACATAAAAGGATACGCAAAGGAGCCGCGGCTCCTGGTAACATGAAAGCCCACAGATGTGGGCTTTTTCGTTGATGGTCAGAACGACCAGTTCACACCAGCTACCGCGTTCCACGGGGATTCCACACCGGCACTATGGCTATACCCCACCCCAAGATGCCCGCTTAACGTACTGCTGAATGAGGCTTTAATACCTGCCTGGTATATTCCACGTCTGCCCGACAAATAATTGACGAAATTACCGNCACTATTCACTTTCACCCGGTTATCATCGACAAATTCTTTGCGCACAAGCCGNCTTCAGCCACGGNTCAACTTCCATACCGNTCCCCAGACGCATGTTGTAACTCAACGTTGCGCCCAGTTCACGATATATACTGCGGGTATCGACTGATTTCGATTTCATGCCATTGGATAAATGATATTCGGGGTTATCAGCGGTGAAACCCGTTNACGATGCATACNGGGTCAGGGTTCAATTACCATCGGTAAATCGCATTCCCGGTTTCAATGTGACCGCCAANCCCGTTGCTGTNGGTAACTGGCATTGGCGGGTTCANCGGTGGTAATTTTAACCTGGTACGNTACTTTTAAAACGGGTTAAGCTTTACCGAANACCGTNCANNATTGGAAACCCNCTTTTAATGGTTNCCCAACTNGGNN
# modifications: misc_feature (1)...(839): n = A,T,C or G
# notes: antisense clone insert encoding a portion of the ypjA gene of Escherichia coli
# Legend:
# [1] = tested on: Bacterial cells containing IPTG-inducible antisense nucleic acid against rplL and rplJ (50S ribosomal subunit proteins); assay: microbe, parasite or virus in culture; format: cell-based, E. coli; conditions: Escherichia coli, read-out: IC50 (+IPTG)
# Protocol: Antibiotics of various chemical classes and modes of action were purchased from Sigma Chemicals (St. Louis, Mo.). Stock solutions were prepared by dissolving each antibiotic in an appropriate aqueous solution based on information provided by the manufacturer. The final working solution of each antibiotic contained no more than 0.2% (w/v) of any organic solvent. To determine their potency against a bacterial strain engineered for expression of an antisense against a proliferation-required gene encoding 50S ribosomal protein, each antibiotic was serially diluted two or three fold in growth medium supplemented with the appropriate antibiotic for maintenance of the anti-sense construct. […]
# Cells for the assay were prepared as follows. […] The plate was then loaded into a plate reader, incubated at constant temperature, and cell growth was monitored in each well by the measurement of light scattering at 595 nm. Growth was monitored every 5 minutes until the cell culture attained a stationary growth phase. For each concentration of antibiotic, a percentage inhibition of growth was calculated at the time point corresponding to mid-exponential growth for the associated control wells (no antibiotic, plus or minus IPTG). For each antibiotic and condition (plus or minus IPTG), a plot of percent inhibition versus log of antibiotic concentration was generated and the IC50 determined.
# [2] = tested on: Enterobacter cloacae; assay: Growth inhibition by E. coli antisense nucleic acids in another microorganism, INDUCED vs. UNINDUCED (Example 12, Table V); format: cell-based; conditions: for Sensitivity of E. cloacae to antisense nucleic acid (growth inhibition, INDUCED vs. UNINDUCED): antisense RNA expression induced with IPTG, serial dilution plating
# Protocol: (§1) To study the effects of transcriptional induction in liquid medium, growth curves were carried out by back diluting cultures 1:200 into fresh media with or without 1 mM IPTG and measuring the OD450 every 30 minutes (min). To study the effects of transcriptional induction on solid medium, 10^2, 10^3, 10^4, 10^5, 10^6, 10^7 and 10^8 fold dilutions of overnight cultures were prepared. Aliquots of from 0.5 to 3 μl of these dilutions were spotted on selective agar plates with or without 1 mM IPTG. After overnight incubation, the plates were compared to assess the sensitivity of the clones to IPTG.
# (§2) Molecule No. EcXA059, encoding a portion of the ypjA gene of Escherichia coli, was either transformed directly into Enterobacter cloacae, Salmonella typhimurium and/or Klebsiella pneumoniae or subcloned into an expression vector functional in these species and the subclones transformed into these organisms. Suitable expression vectors are well known in the art. These expression vectors were introduced into Enterobacter cloacae, Salmonella typhimurium and/or Klebsiella pneumoniae cells that were then assayed for growth inhibition according to the method of Example 1. After growth in liquid culture, cells were plated at various serial dilutions and a score determined by calculating the log difference in growth for INDUCED vs. UNINDUCED antisense RNA expression as determined by the maximum 10 fold dilution at which a colony was observed. If there was no effect of antisense RNA expression in one organism, the clone is given a score of zero “0” in that organism. In contrast, a score of “8” means that 10^8 times more cells were required to observe a colony formed on the induced state than in the non-induced state under the conditions used and in that organism.
# (§3) Expression vectors which inhibited growth of E. coli upon induction of antisense RNA expression with IPTG were transformed directly into Enterobacter cloacae, Klebsiella pneumonia or Salmonella typhimurium. The transformed cells were then assayed for growth inhibition according to the method of Example 1. After growth in liquid culture, cells were plated at various serial dilutions and a score determined by calculating the log difference in growth for INDUCED vs. UNINDUCED antisense RNA expression as determined by the maximum 10 fold dilution at which a colony was observed. If there was no effect of antisense RNA expression in a microorganism, the clone is minus in Table V below. In contrast, a positive in Table V below means that at least 10 fold more cells were required to observe a colony on the induced plate than on the non-induced plate under the conditions used and in that microorganism.
# [3] = tested on: Escherichia coli; assay: Growth inhibition after IPTG induction of antisense RNA expression (Example 1; score of Example 12); format: cell-based; conditions: for effect of antisense expression on E. coli growth: 1 mM IPTG
# Protocol: as §1
# Of the numerous clones tested, some clones were identified as containing a sequence that inhibited E. coli growth after IPTG induction. Accordingly, the gene to which the inserted nucleic acid sequence corresponds, or a gene within the operon containing the inserted nucleic acid, may be required for proliferation in E. coli.
# as §2
# [4] = tested on: Klebsiella pneumoniae; assay: Growth inhibition by E. coli antisense nucleic acids in another microorganism, INDUCED vs. UNINDUCED (Example 12, Table V); format: cell-based; conditions: for Sensitivity of K. pneumoniae to antisense nucleic acid (growth inhibition, INDUCED vs. UNINDUCED): antisense RNA expression induced with IPTG, serial dilution plating
# Protocol: as §1, §2, §3
# [5] = tested on: Salmonella typhimurium; assay: as above; format: cell-based; conditions: for Sensitivity of S. typhimurium to antisense nucleic acid (growth inhibition, INDUCED vs. UNINDUCED): antisense RNA expression induced with IPTG, serial dilution plating
# Protocol: as §1, §2, §3
Molecule,"Sensitivity of E. cloacae to antisense nucleic acid (growth inhibition, INDUCED vs. UNINDUCED) [2]",effect of antisense expression on E. coli growth [3],"Sensitivity of K. pneumoniae to antisense nucleic acid (growth inhibition, INDUCED vs. UNINDUCED) [4]","Sensitivity of S. typhimurium to antisense nucleic acid (growth inhibition, INDUCED vs. UNINDUCED) [5]",also measured
NC[C@H]1O[C@H](O[C@H]2[C@H](O)[C@@H](O[C@H]3O[C@H](CO)[C@@H](O)[C@H](N)[C@H]3O)[C@H](N)C[C@@H]2N)[C@H](N)C[C@@H]1O [Tobramycin],,,,,IC50 [1]: 0.0705 µg/mL
B1,+ (a positive in Table V below means that at least 10 fold more cells were required to observe a colony on the induced plate than on the non-induced plate),reduction in cell growth,,,
B2,+ (a positive in Table V below means that at least 10 fold more cells were required to observe a colony on the induced plate than on the non-induced plate),reduction in cell growth,+ (a positive in Table V below means that at least 10 fold more cells were required to observe a colony on the induced plate than on the non-induced plate),+ (a positive in Table V below means that at least 10 fold more cells were required to observe a colony on the induced plate than on the non-induced plate),
B3,,reduction in cell growth,,,
B4,,reduction in cell growth,,,
B5,,reduction in cell growth,+ (a positive in Table V below means that at least 10 fold more cells were required to observe a colony on the induced plate than on the non-induced plate),+ (a positive in Table V below means that at least 10 fold more cells were required to observe a colony on the induced plate than on the non-induced plate),
B6,+ (a positive in Table V below means that at least 10 fold more cells were required to observe a colony on the induced plate than on the non-induced plate),,+ (a positive in Table V below means that at least 10 fold more cells were required to observe a colony on the induced plate than on the non-induced plate),+ (a positive in Table V below means that at least 10 fold more cells were required to observe a colony on the induced plate than on the non-induced plate),"score (log difference in growth for INDUCED vs. UNINDUCED antisense RNA expression) ([4]; Klebsiella pneumoniae, IPTG induction): > 7; score (log difference in growth for INDUCED vs. UNINDUCED antisense RNA expression) ([2]; Enterobacter cloacae, IPTG induction): 8; score (log difference in growth for INDUCED vs. UNINDUCED antisense RNA expression) ([5]; Salmonella typhimurium, IPTG induction): 8; score (log difference in growth for INDUCED vs. UNINDUCED antisense RNA expression) ([3]; Escherichia coli, maximum 10 fold dilution at which a colony was observed): 8"
